Source: PMC10648788, “Ahf-Caltide, a Novel Polypeptide Derived from Calpastatin, Protects against Oxidative Stress Injury by Stabilizing the Expression of CaV1.2 Calcium Channel” (International Journal of Molecular Sciences, 2023)

T1: GST-IQ, IQ motif of the CaV1.2 channel alpha1 subunit (UniProt O35505 1648-1668)
T1 construct: CaV1.2 calcium channel alpha1 subunit, IQ motif, a.a; 1648-1668, GenBank AB016287; also called IQ domain; source: E. coli BL21, purified (Glutathione Sepharose 4B)
T1 chain (looked up): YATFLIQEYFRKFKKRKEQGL

B1: Calpastatin (CAST) domain L (domain or fragment, UniProt P20810 3-148, looked up)
chain: PTETKAIPVSQQMEGPHLPNKKKHKKQAVKTEPEKKSQSTKLSVVHEKKSQEGKPKEHTEPKSLPKQASDTGSNDAHNKKAVSRSAEQQPSEKSTEPKTKPQDMISAGGESVAGITAISGKPGDKKKEKKSLTPAVPVESKPDKPS
notes: calpastatin (CAST) domain L (CSL), a.a; In the H2O2 experiments CSL was incubated with H2O2 present; The chemical change is not defined; also called CSL; source: E. coli BL21, purified (Glutathione Sepharose 4B), GST removed using PreScission protease
B2: GST-NT, N terminus of the CaV1.2 channel alpha1 subunit (domain or fragment, UniProt O35505 6-140, looked up)
chain: QPTTPAYRPLPSHLSADTEVRGRGTLVHEAQLNCFYISPGGSNYGSPRPAHANINANAAAGLAPEHIPTPGAALSWQAAIDAGRQAKLMGSAGNTTISTVSSTQRKRQQYGKPKKQSGTTATRPPRALLCLTLKN
notes: CaV1.2 calcium channel alpha1 subunit, N terminus (NT), a.a; 6-140, GenBank AB016287; source: E. coli BL21, purified (Glutathione Sepharose 4B)

Assays:
Details in all cases: both partners purified
[1] = biological target: T2, GST-CT1, proximal portion of the C terminus of the CaV1.2 channel alpha1 subunit (UniProt O35505 1509-1789); experiment: pull-down; GST fusion (15 ug) with 10 uM CSL in 400 uL Tris buffer, 4 C, 4 h; [Ca2+] 10 uM, H2O2 10^-2 M; Coomassie-stained gel quantified
T2 construct: CaV1.2 calcium channel alpha1 subunit, CT1 (proximal portion of CT), a.a; 1509-1789, GenBank AB016287; source: E. coli BL21, purified (Glutathione Sepharose 4B)

[2] = biological target: T1, GST-IQ, IQ motif of the CaV1.2 channel …; experiment: as above
[3] = biological target: T3, GST-PreIQ, PreIQ motif of the CaV1.2 channel alpha1 subunit (UniProt O35505 1599-1639); experiment: as above
T3 construct: CaV1.2 calcium channel alpha1 subunit, PreIQ motif, a.a; 1599-1639, GenBank AB016287; source: E. coli BL21, purified (Glutathione Sepharose 4B)

[4] = biological target: B2; experiment: as above
[5] = biological target: T2, GST-CT1, proximal portion of the C …; experiment: pull-down; GST fusion (15 ug) with 10 uM CSL in 400 uL Tris buffer, 4 C, 4 h; [Ca2+] 10 uM, H2O2 0 M; Coomassie-stained gel quantified
[6] = biological target: T1, GST-IQ, IQ motif of the CaV1.2 channel …; experiment: as above
[7] = biological target: T3, GST-PreIQ, PreIQ motif of the CaV1.2 …; experiment: as above
[8] = biological target: B2; experiment: as above
[9] = biological target: T2, GST-CT1, proximal portion of the C …; experiment: pull-down; GST fusion (15 ug) with 10 uM CSL in 400 uL Tris buffer, 4 C, 4 h; [Ca2+] 10 uM, H2O2 10^-1 M; Coomassie-stained gel quantified
[10] = biological target: T1, GST-IQ, IQ motif of the CaV1.2 channel …; experiment: as above
[11] = biological target: T3, GST-PreIQ, PreIQ motif of the CaV1.2 …; experiment: as above
[12] = biological target: B2; experiment: as above
[13] = biological target: B1; experiment: pull-down; GST-NT (15 ug) incubated with CSL 0-30 uM for 4 h in 400 uL Tris buffer, [Ca2+] 10 uM; Coomassie-stained gel quantified; one-site fit, apparent Kd
[14] = biological target: B1; experiment: pull-down; GST-NT (15 ug) incubated with CSL 0-30 uM for 4 h in 400 uL Tris buffer, [Ca2+] 25 nM; Coomassie-stained gel quantified; one-site fit, apparent Kd
[15] = biological target: B1; experiment: pull-down; GST-NT (15 ug) incubated with CSL 0-30 uM for 4 h in 400 uL Tris buffer, [Ca2+] 1 mM; Coomassie-stained gel quantified; one-site fit, apparent Kd

T3 sequence (O35505 1599-1639): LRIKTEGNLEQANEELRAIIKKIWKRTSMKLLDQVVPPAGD
T2 sequence (O35505 1509-1789): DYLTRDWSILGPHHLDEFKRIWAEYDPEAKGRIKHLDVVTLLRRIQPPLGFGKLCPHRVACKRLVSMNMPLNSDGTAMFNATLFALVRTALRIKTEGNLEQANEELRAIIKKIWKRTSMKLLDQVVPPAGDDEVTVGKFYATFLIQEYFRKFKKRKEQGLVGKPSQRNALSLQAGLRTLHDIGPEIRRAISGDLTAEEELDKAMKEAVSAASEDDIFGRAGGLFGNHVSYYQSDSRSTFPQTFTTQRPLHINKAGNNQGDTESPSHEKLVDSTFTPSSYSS

Row | Binder | binding density of CSL [1] | binding density of CSL [2] | binding density of CSL [3] | binding density of CSL [4] | binding density of CSL [5] | binding density of CSL [6] | binding density of CSL [7] | binding density of CSL [8] | binding density of CSL [9] | binding density of CSL [10] | binding density of CSL [11] | binding density of CSL [12] | Kd [13] [nM] | Kd [14] [nM] | Kd [15] [nM]
1 | B1 | 1.12 | 0.34 | 0.16 | 0.46 | 0.52 | 0.15 | 0.16 | 0.46 | 0.68 | 0.26 | 0.16 | 0.46 | – | – | –
2 | B2 | – | – | – | – | – | – | – | – | – | – | – | – | 1480 | 1110 | 1320
